Data published in publication PMC2900306, “Integration Preferences of Wildtype AAV-2 for Consensus Rep-Binding Sites at Numerous Loci in the Human Genome”.

Tests used:
MBP-Rep78 [1] = molecular target: T1, MBP-Rep78 (Adeno-associated virus type 2 (AAV-2)?, UniProt Q89268 1-621); test: EMSA; 10 mM Mg2+; 25 mM HEPES-KOH pH 7.8, 10 mM MgCl2, 40 mM NaCl, 1 mM DTT, 2% glycerol, 12.5 ug/ml BSA, 0.01% Nonidet P40, 5 ug/ml salmon sperm DNA; 0.015 pmol probe; 20 min at 20 C; settings: protein: recombinant; MBP fusion; label: 32P 5' end label; blunt
T1 sequence: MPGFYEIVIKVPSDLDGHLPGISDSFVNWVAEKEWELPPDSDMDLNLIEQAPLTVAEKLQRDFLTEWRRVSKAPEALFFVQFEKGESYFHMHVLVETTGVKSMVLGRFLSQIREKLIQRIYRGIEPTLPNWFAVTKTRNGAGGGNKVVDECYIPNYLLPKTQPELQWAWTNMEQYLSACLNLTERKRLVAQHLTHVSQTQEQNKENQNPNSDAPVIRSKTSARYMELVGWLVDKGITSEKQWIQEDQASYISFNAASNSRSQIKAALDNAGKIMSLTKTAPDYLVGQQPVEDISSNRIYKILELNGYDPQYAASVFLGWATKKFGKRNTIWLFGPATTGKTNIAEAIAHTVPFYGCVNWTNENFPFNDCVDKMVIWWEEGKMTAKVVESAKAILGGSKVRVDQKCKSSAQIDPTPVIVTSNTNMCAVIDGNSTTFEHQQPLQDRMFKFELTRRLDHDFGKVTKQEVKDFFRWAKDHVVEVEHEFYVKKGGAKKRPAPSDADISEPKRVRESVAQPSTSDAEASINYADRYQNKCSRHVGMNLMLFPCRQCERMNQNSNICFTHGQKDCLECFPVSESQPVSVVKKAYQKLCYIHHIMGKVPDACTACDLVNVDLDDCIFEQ

MBP-Rep78 [2] = molecular target: T1, MBP-Rep78; test: EMSA; among the highest affinities; 10 mM Mg2+; 25 mM HEPES-KOH pH 7.8, 10 mM MgCl2, 40 mM NaCl, 1 mM DTT, 2% glycerol, 12.5 ug/ml BSA, 0.01% Nonidet P40, 5 ug/ml salmon sperm DNA; 0.015 pmol probe; 20 min at 20 C; settings: protein: recombinant; MBP fusion; label: 32P 5' end label; blunt

B1: Chr. 3p24.3 (AAVS3) (dsDNA)
DNA 1: GTGAGGAGTGAGTGAGTGAGCGAGCGCACATTCATTCCCCTTGGGAAGC
DNA 2: GCTTCCCAAGGGGAATGAATGTGCGCTCGCTCACTCACTCACTCCTCAC
binding signal (MBP-Rep78 [1]): 2 fold of AAVS1 affinity

B2: AAV-ITR (A-stem, nt 85-133) (dsDNA)
DNA 1: GCCTCAGTGAGCGAGCGAGCGCGCAGAGAGGGAGTGGCCAACTCCATCA
DNA 2: TGATGGAGTTGGCCACTCCCTCTCTGCGCGCTCGCTCGCTCACTGAGGC
binding result (MBP-Rep78 [2]): binds

B3: AAV p5 (nt 245-292) (dsDNA)
DNA 1: TCACGCTGGGTATTTAAGCCCGAGTGAGCACGCAGGGTCTCCATTTTG
DNA 2: CAAAATGGAGACCCTGCGTGCTCACTCGGGCTTAAATACCCAGCGTGA
binding result (MBP-Rep78 [2]): binds
